# T1: En1 HD fragment (UniProt P09065 282-401)
# T1 sequence: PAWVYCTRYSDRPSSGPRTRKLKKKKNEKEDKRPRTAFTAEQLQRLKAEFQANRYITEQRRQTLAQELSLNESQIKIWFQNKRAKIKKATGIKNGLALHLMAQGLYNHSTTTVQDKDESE
# T2: VENTX HD fragment (UniProt O95231 69-178)
# T2 sequence: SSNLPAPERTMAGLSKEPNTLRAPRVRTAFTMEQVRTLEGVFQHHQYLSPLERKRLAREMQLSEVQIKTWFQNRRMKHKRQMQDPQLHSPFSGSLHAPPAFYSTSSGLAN
# T3: Barx1 HD fragment (UniProt Q9ER42 95-221)
# T3 sequence: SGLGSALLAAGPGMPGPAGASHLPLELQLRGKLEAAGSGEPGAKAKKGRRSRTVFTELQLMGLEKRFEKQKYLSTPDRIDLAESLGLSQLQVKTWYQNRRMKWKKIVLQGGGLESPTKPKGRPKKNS
# B1: Alx4_SELEX_1+1 (dsDNA)
# DNA 1: TGTGTCTTAATTAGGATTAACGCACTTGATAGTGCGGGCGTGGCT
# DNA 2: AGCCACGCCCGCACTATCAAGTGCGTTAATCCTAATTAAGACACA
# B2: Alx4_SELEX_1 (dsDNA)
# DNA 1: TGTGTCTTAATTAGATTAACGCACTTGATAGTGCGGGCGTGGCT
# DNA 2: AGCCACGCCCGCACTATCAAGTGCGTTAATCTAATTAAGACACA
# B3: HESX1_HOMER+1 (dsDNA)
# DNA 1: TCTTCTCTAATTAGTGGCTAATTCTGTAGTGCGGGCGTGGCT
# DNA 2: AGCCACGCCCGCACTACAGAATTAGCCACTAATTAGAGAAGA
# B4: En1_SELEX_2 (dsDNA)
# DNA 1: TGTAGGATAATTGGGTAATTAGTGCAGATAGTGCGGGCGTGGCT
# DNA 2: AGCCACGCCCGCACTATCTGCACTAATTACCCAATTATCCTACA
# B5: Gsx2_SELEX_2 (dsDNA)
# DNA 1: TCCAACAGTCATTAAACTCTCATTATCGTAGTGCGGGCGTGGCT
# DNA 2: AGCCACGCCCGCACTACGATAATGAGAGTTTAATGACTGTTGGA
# B6: Gsx2_SELEX_1 (dsDNA)
# DNA 1: TCCAACAACAATTAAAAACATATTAACGTAGTGCGGGCGTGGCT
# DNA 2: AGCCACGCCCGCACTACGTTAATATGTTTTTAATTGTTGTTGGA
# B7: HESX1_HOMER (dsDNA)
# DNA 1: TCTTCTCTAATTAGTGCTAATTCTGTAGTGCGGGCGTGGCT
# DNA 2: AGCCACGCCCGCACTACAGAATTAGCACTAATTAGAGAAGA
# B8: MSX1_SELEX_1 (dsDNA)
# DNA 1: TGCGAACAGAAGCCAATTAGTGCTAATTGGCCAATTAGCTAGTGCGGGCGTGGCT
# DNA 2: AGCCACGCCCGCACTAGCTAATTGGCCAATTAGCACTAATTGGCTTCTGTTCGCA
# B9: Dlx2_HOMER (dsDNA)
# DNA 1: TTCATGGGTAATTAGGTGTTATTATAGTGCGGGCGTGGCT
# DNA 2: AGCCACGCCCGCACTATAATAACACCTAATTACCCATGAA
# B10: Msx2_SELEX_2+1 (dsDNA)
# DNA 1: TGCGGGGCAATTAAATGACCAATTAGTGATAGTGCGGGCGTGGCT
# DNA 2: AGCCACGCCCGCACTATCACTAATTGGTCATTTAATTGCCCCGCA
# B11: Msx2_SELEX_2 (dsDNA)
# DNA 1: TGCGGGGCAATTAAATACCAATTAGTGATAGTGCGGGCGTGGCT
# DNA 2: AGCCACGCCCGCACTATCACTAATTGGTATTTAATTGCCCCGCA
# B12: Barhl2_SELEX_1+1 (dsDNA)
# DNA 1: TATTGTTGCTAAACGGTGGCGTTTAGCGTGTAGTGCGGGCGTGGCT
# DNA 2: AGCCACGCCCGCACTACACGCTAAACGCCACCGTTTAGCAACAATA
# B13: En1_SELEX_2+1 (dsDNA)
# DNA 1: TGTAGGATAATTGGGGTAATTAGTGCAGATAGTGCGGGCGTGGCT
# DNA 2: AGCCACGCCCGCACTATCTGCACTAATTACCCCAATTATCCTACA
# B14: Arx_SELEX_1 (dsDNA)
# DNA 1: TGCGTTGCTAATTGAATTAGCACACGTGCTAGTGCGGGCGTGGCT
# DNA 2: AGCCACGCCCGCACTAGCACGTGTGCTAATTCAATTAGCAACGCA
# B15: Gsx1_HOMER (dsDNA)
# DNA 1: TCACACTTAATTACTAATTAATTACGTAGTGCGGGCGTGGCT
# DNA 2: AGCCACGCCCGCACTACGTAATTAATTAGTAATTAAGTGTGA
# B16: VENTX_SELEX_1+1 (dsDNA)
# DNA 1: TGAAGTTAAGCCTAATCGATAGAACGATTAGCGTTAGGAATAGTGCGGGCGTGGCT
# DNA 2: AGCCACGCCCGCACTATTCCTAACGCTAATCGTTCTATCGATTAGGCTTAACTTCA
# B17: Dlx2_SELEX_2 (dsDNA)
# DNA 1: TTCATGCAATTACTGCTAATTGCCACTATAGTGCGGGCGTGGCT
# DNA 2: AGCCACGCCCGCACTATAGTGGCAATTAGCAGTAATTGCATGAA
# B18: Alx1_SELEX_2 (dsDNA)
# DNA 1: TGCGCCTAATTAGATTAACCTGAACAGATAGTGCGGGCGTGGCT
# DNA 2: AGCCACGCCCGCACTATCTGTTCAGGTTAATCTAATTAGGCGCA
# B19: Arx_SELEX_1+1 (dsDNA)
# DNA 1: TGCGTTGCTAATTGGAATTAGCACACGTGCTAGTGCGGGCGTGGCT
# DNA 2: AGCCACGCCCGCACTAGCACGTGTGCTAATTCCAATTAGCAACGCA
# B20: Barx1_SELEX_2 (dsDNA)
# DNA 1: TATTCGAAACAATTAAATAACGATTACTGTAGTGCGGGCGTGGCT
# DNA 2: AGCCACGCCCGCACTACAGTAATCGTTATTTAATTGTTTCGAATA
# B21: Barhl2_SELEX_1 (dsDNA)
# DNA 1: TATTGTTGCTAAACGGTGCGTTTAGCGTGTAGTGCGGGCGTGGCT
# DNA 2: AGCCACGCCCGCACTACACGCTAAACGCACCGTTTAGCAACAATA
# B22: VENTX_SELEX_1 (dsDNA)
# DNA 1: TGAAGTTAAGCCTAATCGATAAACGATTAGCGTTAGGAATAGTGCGGGCGTGGCT
# DNA 2: AGCCACGCCCGCACTATTCCTAACGCTAATCGTTTATCGATTAGGCTTAACTTCA
# B23: Gsx1_HOMER+1 (dsDNA)
# DNA 1: TCACACTTAATTACTGAATTAATTACGTAGTGCGGGCGTGGCT
# DNA 2: AGCCACGCCCGCACTACGTAATTAATTCAGTAATTAAGTGTGA
# B24: Barx1_SELEX_2+1 (dsDNA)
# DNA 1: TATTCGAAACAATTAAATAGACGATTACTGTAGTGCGGGCGTGGCT
# DNA 2: AGCCACGCCCGCACTACAGTAATCGTCTATTTAATTGTTTCGAATA
# B25: Alx1_SELEX_2+1 (dsDNA)
# DNA 1: TGCGCCTAATTAGGATTAACCTGAACAGATAGTGCGGGCGTGGCT
# DNA 2: AGCCACGCCCGCACTATCTGTTCAGGTTAATCCTAATTAGGCGCA
# B26: MSX1_SELEX_1+1 (dsDNA)
# DNA 1: TGCGAACAGAAGCCAATTAGTGGCTAATTGGCCAATTAGCTAGTGCGGGCGTGGCT
# DNA 2: AGCCACGCCCGCACTAGCTAATTGGCCAATTAGCCACTAATTGGCTTCTGTTCGCA
# Columns and labels:
# Alx4 HD fragment = Alx4 HD fragment (UniProt O35137 157-291); assay: EMSA; EMSA, 34 nM IRDye700 probe, room temperature 20 min, 4% polyacrylamide gel 150 V 2 h; binding buffer as in cited ref 35 (not given); conditions: protein: recombinant; tags: N-terminal 6xHis (pET-14b or pET-14P; may be cleaved); chain copies: 2; label: 5' IRDye700 on bottom strand; blunt
# Chain of Alx4 HD fragment (O35137 157-291): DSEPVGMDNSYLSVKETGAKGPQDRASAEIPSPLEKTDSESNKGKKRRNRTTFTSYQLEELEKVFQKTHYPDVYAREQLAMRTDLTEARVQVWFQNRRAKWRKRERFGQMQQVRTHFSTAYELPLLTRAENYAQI
# HESX1 HD fragment = HESX1 HD fragment (UniProt Q9UBX0 65-185); assay: as above; conditions: protein: recombinant; tags: N-terminal 6xHis (pET-14b or pET-14P; may be cleaved); label: 5' IRDye700 on bottom strand; blunt
# Chain of HESX1 HD fragment (Q9UBX0 65-185): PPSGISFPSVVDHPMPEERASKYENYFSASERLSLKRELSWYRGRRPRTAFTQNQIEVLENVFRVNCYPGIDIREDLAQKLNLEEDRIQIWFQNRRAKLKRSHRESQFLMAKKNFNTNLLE
# En1 HD fragment = molecular target: T1, En1 HD fragment; assay: as above; conditions: protein: recombinant; tags: N-terminal 6xHis (pET-14b or pET-14P; may be cleaved); label: 5' IRDye700 on bottom strand; blunt
# Gsx2 HD fragment = Gsx2 HD fragment (UniProt P31316 167-305); assay: EMSA; 100 and 400 nM protein; EMSA, 34 nM IRDye700 probe, room temperature 20 min, 4% polyacrylamide gel 150 V 2 h; binding buffer as in cited ref 35 (not given); conditions: protein: recombinant; tags: N-terminal 6xHis (pET-14b or pET-14P; may be cleaved); chain copies: 2; label: 5' IRDye700 on bottom strand; blunt
# Chain of Gsx2 HD fragment (P31316 167-305): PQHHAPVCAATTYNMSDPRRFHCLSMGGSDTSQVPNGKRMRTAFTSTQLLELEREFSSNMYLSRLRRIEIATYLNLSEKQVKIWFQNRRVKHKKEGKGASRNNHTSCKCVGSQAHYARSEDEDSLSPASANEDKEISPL
# MSX1 HD fragment = MSX1 HD fragment (UniProt P28360 131-258); assay: EMSA; EMSA, 34 nM IRDye700 probe, room temperature 20 min, 4% polyacrylamide gel 150 V 2 h; binding buffer as in cited ref 35 (not given); conditions: protein: recombinant; tags: N-terminal 6xHis (pET-14b or pET-14P; may be cleaved); label: 5' IRDye700 on bottom strand; blunt
# Chain of MSX1 HD fragment (P28360 131-258): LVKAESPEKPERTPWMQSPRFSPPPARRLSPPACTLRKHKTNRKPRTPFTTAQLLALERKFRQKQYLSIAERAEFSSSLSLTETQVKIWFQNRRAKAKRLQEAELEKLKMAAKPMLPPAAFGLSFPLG
# Dlx2 HD fragment = Dlx2 HD fragment (UniProt P40764 137-229); assay: EMSA; 20 and 80 nM protein; monomer; EMSA, 34 nM IRDye700 probe, room temperature 20 min, 4% polyacrylamide gel 150 V 2 h; binding buffer as in cited ref 35 (not given); conditions: protein: recombinant; tags: N-terminal 6xHis (pET-14b or pET-14P; may be cleaved); label: 5' IRDye700 on bottom strand; blunt
# Chain of Dlx2 HD fragment (P40764 137-229): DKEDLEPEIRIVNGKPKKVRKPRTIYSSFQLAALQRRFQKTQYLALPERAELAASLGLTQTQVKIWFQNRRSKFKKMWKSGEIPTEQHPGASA
# Msx2 HD fragment = Msx2 HD fragment (UniProt Q03358 99-227); assay: EMSA; EMSA, 34 nM IRDye700 probe, room temperature 20 min, 4% polyacrylamide gel 150 V 2 h; binding buffer as in cited ref 35 (not given); conditions: protein: recombinant; tags: N-terminal 6xHis (pET-14b or pET-14P; may be cleaved); chain copies: 2; label: 5' IRDye700 on bottom strand; blunt
# Chain of Msx2 HD fragment (Q03358 99-227): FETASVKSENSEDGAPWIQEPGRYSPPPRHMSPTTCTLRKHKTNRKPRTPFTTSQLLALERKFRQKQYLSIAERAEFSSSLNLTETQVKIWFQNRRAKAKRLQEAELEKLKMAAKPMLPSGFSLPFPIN
# Barhl2 HD fragment = Barhl2 HD fragment (UniProt Q8VIB5 190-316); assay: as above; conditions: protein: recombinant; tags: N-terminal 6xHis (pET-14b or pET-14P; may be cleaved); label: 5' IRDye700 on bottom strand; blunt
# Chain of Barhl2 HD fragment (Q8VIB5 190-316): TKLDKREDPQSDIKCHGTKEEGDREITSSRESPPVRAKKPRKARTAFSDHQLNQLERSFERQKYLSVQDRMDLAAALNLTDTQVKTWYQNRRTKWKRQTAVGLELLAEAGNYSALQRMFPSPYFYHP
# Arx HD fragment = Arx HD fragment (UniProt O35085 292-420); assay: as above; conditions: protein: recombinant; tags: N-terminal 6xHis (pET-14b or pET-14P; may be cleaved); chain copies: 2; label: 5' IRDye700 on bottom strand; blunt
# Chain of Arx HD fragment (O35085 292-420): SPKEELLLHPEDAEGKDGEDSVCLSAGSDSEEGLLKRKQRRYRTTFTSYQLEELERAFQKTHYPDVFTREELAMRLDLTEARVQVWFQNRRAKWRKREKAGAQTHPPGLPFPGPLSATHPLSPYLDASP
# Gsx1 HD fragment = Gsx1 HD fragment (UniProt P31315 127-261); assay: as above; conditions: protein: recombinant; tags: N-terminal 6xHis (pET-14b or pET-14P; may be cleaved); chain copies: 2; label: 5' IRDye700 on bottom strand; blunt
# Chain of Gsx1 HD fragment (P31315 127-261): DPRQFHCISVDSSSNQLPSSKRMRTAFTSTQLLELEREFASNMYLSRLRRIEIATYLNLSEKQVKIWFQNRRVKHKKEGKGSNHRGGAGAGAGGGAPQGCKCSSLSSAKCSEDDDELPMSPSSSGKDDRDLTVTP
# VENTX HD fragment = molecular target: T2, VENTX HD fragment; assay: as above; conditions: protein: recombinant; tags: N-terminal 6xHis (pET-14b or pET-14P; may be cleaved); chain copies: 2; label: 5' IRDye700 on bottom strand; blunt
# Alx1 (Cart1) HD fragment = Alx1 (Cart1) HD fragment (UniProt Q8C8B0 105-220); assay: as above; conditions: protein: recombinant; tags: N-terminal 6xHis (pET-14b or pET-14P; may be cleaved); chain copies: 2; label: 5' IRDye700 on bottom strand; blunt
# Chain of Alx1 (Cart1) HD fragment (Q8C8B0 105-220): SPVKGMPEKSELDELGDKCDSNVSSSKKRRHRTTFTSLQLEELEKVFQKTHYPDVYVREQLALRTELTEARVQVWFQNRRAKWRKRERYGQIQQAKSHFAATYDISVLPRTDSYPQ
# Barx1 HD fragment = molecular target: T3, Barx1 HD fragment; assay: as above; conditions: protein: recombinant; tags: N-terminal 6xHis (pET-14b or pET-14P; may be cleaved); chain copies: 2; label: 5' IRDye700 on bottom strand; blunt
binder,measurement,setting,value
B1,cooperativity factor (tau),Alx4 HD fragment,1.1 ± 0.8 Tau cooperativity factor
B2,cooperativity factor (tau),Alx4 HD fragment,167 ± 23.1 Tau cooperativity factor
B3,cooperativity factor (tau),HESX1 HD fragment,1.3 ± 1.8 Tau cooperativity factor
B4,cooperativity factor (tau),En1 HD fragment,0.1 ± 0.1 Tau cooperativity factor
B5,binding result,Gsx2 HD fragment,binds
B6,binding result,Gsx2 HD fragment,binds
B7,cooperativity factor (tau),HESX1 HD fragment,1.7 ± 2 Tau cooperativity factor
B8,cooperativity factor (tau),MSX1 HD fragment,1.2 ± 0.1 Tau cooperativity factor
B9,binding result,Dlx2 HD fragment,binds
B10,cooperativity factor (tau),Msx2 HD fragment,2.1 ± 0.6 Tau cooperativity factor
B11,cooperativity factor (tau),Msx2 HD fragment,14 ± 2.6 Tau cooperativity factor
B12,cooperativity factor (tau),Barhl2 HD fragment,6.4 ± 1.2 Tau cooperativity factor
B13,cooperativity factor (tau),En1 HD fragment,0.2 ± 0.1 Tau cooperativity factor
B14,cooperativity factor (tau),Arx HD fragment,168 ± 50.7 Tau cooperativity factor
B15,cooperativity factor (tau),Gsx1 HD fragment,48.7 ± 12.9 Tau cooperativity factor
B16,cooperativity factor (tau),VENTX HD fragment,3.3 ± 3 Tau cooperativity factor
B17,binding result,Dlx2 HD fragment,binds
B18,cooperativity factor (tau),Alx1 (Cart1) HD fragment,126 ± 27.2 Tau cooperativity factor
B19,cooperativity factor (tau),Arx HD fragment,36.4 ± 11.5 Tau cooperativity factor
B20,cooperativity factor (tau),Barx1 HD fragment,4.4 ± 0.6 Tau cooperativity factor
B21,cooperativity factor (tau),Barhl2 HD fragment,5.4 ± 0.58 Tau cooperativity factor
B22,cooperativity factor (tau),VENTX HD fragment,36.7 ± 3.9 Tau cooperativity factor
B23,cooperativity factor (tau),Gsx1 HD fragment,2.9 ± 0.9 Tau cooperativity factor
B24,cooperativity factor (tau),Barx1 HD fragment,0.7 ± 0.2 Tau cooperativity factor
B25,cooperativity factor (tau),Alx1 (Cart1) HD fragment,10.1 ± 9.7 Tau cooperativity factor
B26,cooperativity factor (tau),MSX1 HD fragment,1.2 ± 0.2 Tau cooperativity factor
